Assay results from the nanobody polyreactivity screen of Harvey et al. (2022).

Experiment: yeast display, Sf9 membrane polyspecificity reagent, FACS + sequencing; frameworks hold sequencing errors
Summary of the method: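 A synthetic nanobody library was expressed on Saccharomyces cerevisiae BJ5465 by galactose induction for 36–48 hours. The library was stained for 1 hour at 4 °C with 10% biotinylated, detergent-solubilized Sf9 membrane reagent and enriched with streptavidin microbeads before FACS. Low and high (top ~1%) gates were set on anti-HA fluorescence for expression and streptavidin fluorescence for reagent binding, and each polyreactivity label reflects the gate of origin.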

Sequence | polyreactivity (PSR sort gate)
QVQLVESGGGLVQAGGSLRLSCAASGRTFGANTMGWYRPAPGKERELVAAITWSGDSTYYADSVKGRFTISRDNAKNTVYLQMNSLKPEDTAVYYCAARLWRQYYYWGQGTQVTVSS | high polyreactivity
QVQLVESGGGLVQAGGSLRLSCAASGRTFGDYAMGGYRPAPGKESELVAAISRRGGNTYYADSVKGRFTISRDNAKNTVYLQMNSLKPDDTAVYDCAAVAYALGFASKEDYWGQGTQVTGSS | high polyreactivity
QVQLVESGGGLVQAGGSLRLSCAASGRTFGFNAKGRYRQAPGTERELVAAISGSGGRPYYADSVKWRFTISRDNAKNTDYLQMNSLKPEDSAVYYCAAGARRGGSGYWGQGTQVTVSS | high polyreactivity
QVQLVESGGGLVQAGGSLRLSCAASGRTFGGNAMGWSRQAPGKERELVAAISISGGSNTYYADSVKGRFTISRDNGKNTVYLQMNSLKPEDTAVYYCAARSTVYISSDYWGQGTQVTVSS | low polyreactivity
QVQLVESGGGLVQAGGSLRLSCAASGRTFGGNAMGWYRQAPGKERELVAAITGRGGSTYYADSVKGRFTISRDNAKNTVYLQMNSLKAEDTAVYYCAKQFKRGYGYDYWGQCTQVTVSS | low polyreactivity
QVQLVESGGGLVQAGGSLRLSCAASGRTFGGNAMGWYRQAPGKERELVATIRSSSSTNYADSVKGRFTISRDNAKNTVYLQMNSLKPEDTAVYYCARRSQRGIYSMYYWGQGTQVTVSS | low polyreactivity
QVQLVESGGGLVQAGGSLRLSCAASGRTFGGNAMGWYRQAPGKERELVATIRSSSSTNYADSVKGRFTISRDNAKNTVYVQMNSLKQEDTAVYYCNAARPDALNTYGYGFDYWGQGTQVTVSS | low polyreactivity
QVQLVESGGGLVQAGGSLRLSCAASGRTFGGNAMGWYRQAPGKEREYVAAISRSGTSTYYADSVKGRFTISRDNAKNTVYLQMNSLKPEDTGVYYCAALNYHKFAHKSDYWGQGTQVTVSS | low polyreactivity
QVQLVESGGGLVQAGGSLRLSCAASGRTFGGYALGWYRQAPGKERELVAAISSGGGTYADSVKGRFTISRDNAKNTVYIQMNSLKPEDTAVYYCAAGYRWYWASKPTVHYYYWGPGTQVTVSS | high polyreactivity
QVQLVESGGGLVQAGGSLRLSCAASGRTFGGYAMGWYRQAPGKERELVAAISRSGGSTRYADSVKGRFTISRDNAKNTVYLQMNSLKPEDTAVYYCAARQKYEILMEYWGQGTQVTVSS | high polyreactivity
QVQLVESGGGLVQAGGSLRLSCAASGRTFGGYVMGWYIQAPGKERELVASISSSAGSTYYADSVKGRFTISRDNAKNTVYLQMNSLKTEDTAVYYCAKRSYNPYYRYYRYPYGYWGQGTQVTVSS | high polyreactivity
QVQLVESGGGLVQAGGSLRLSCAASGRTFGHNAMGWYRQAPGKEREFVAAITYSGVRTFYADSVKGRFTISRDNAKNTVYLQMNSLKPEDTSVYYCATDWRRDYDYWGQGTQVTVSS | low polyreactivity
QVQLVESGGGLVQAGGSLRLSCAASGRTFGHYAMGLYRQAPGKERELVADITRRGGSTSYADSVKGRFTISRDNAKNTVYLQMNSLKPEDTAVYYCNKAADGSSHYDYWGQGTQVTVSS | low polyreactivity
QVQLVESGGGLVQAGGSLRLSCAASGRTFGHYAMGWYRQAPGKERELVAAITYSGGSTYADSVKGRFTISRDNAKNTVYLQMNSLKPEDTAVYYCNKRQKGYTRSYRYIVWYDYWGQGTQVTVSS | high polyreactivity
QVQLVESGGGLVQAGGSLRLSCAASGRTFGINAMGWYRQAPGKERELVAVISFGDGGTYYADSVKGRFTISRDNAKNTVYLQMNSLKPEDSAVYYCAAEVVAQMNYWGQGTQVTVSS | low polyreactivity
QVQLVESGGGLVQAGGSLRLSCAASGRTFGIYAMGWYRQAPGKERELVAAISCGGGSTYYADSVKGRFTISRDNAKNTVYLQMNSLKPEYTAVYYCAAQAQWDGQMDYWGQGTQVTVSS | low polyreactivity

Sequence | polyreactivity (PSR sort gate)
QVQLVESGGGLVQAGGSLRLSCAASGRTFGKNAMGWYRQAPGKERELVAAISTSGGRTYYADSVMGRFTISRDNAKNTVYLQMNSLIPEDPAVYYCAAVLYDTRPVYGCESWGQGTQVTVSS | high polyreactivity
QVQLVESGGGLVQAGGSLRLSCAASGRTFGKYARGWYRQAPGKERELVASITFSSGSTYYADSVKGRFTISRDNAKNTVYLQMNSLKPEDTAVYYCAKRGWGIYDYWGQGTQVTVSS | low polyreactivity
QVQLVESGGGLVQAGGSLRLSCAASGRTFGLNGMGWYRQAPGKEREFVATITGSGTSTYYADSVKGRFTISRDNAKNTVYLQMNSLKPEDTAVYYCAALSGLWGYHYYHEYYYWGQGTQVTVSS | low polyreactivity
QVQLVESGGGLVQAGGSLRLSCAASGRTFGLYAMGWYRPAPGKERELVADINGSGTRTYYADSVKGRFTISRDYAKNTVYLQMNSLKPEDTAVYYCYGRYHWLYYWGQGTQVTVSS | high polyreactivity
QVQLVESGGGLVQAGGSLRLSCAASGRTFGLYAMGWYRQAPGKERELVAAIDQSTGSTYYADSVKGRFTISRDNAKNTVYLQMNRLKPEDTAVYYCAAEEASTVRYYWYDYWGQGTQVTVSS | high polyreactivity
QVQLVESGGGLVQAGGSLRLSCAASGRTFGLYAMGWYRQAPGKERELVAAISWGGGRTYYADSVKGRFTISRDNAKNTVYLQMNSLKPEDNAVYYCNAVYSPRYYVGGYDYWGQGTQVTVSS | high polyreactivity
QVQLVESGGGLVQAGGSLRLSCAASGRTFGNNAMGWYRQAPGKERELVAAITGSGGSTYYADSVKGRFTISRDNAKNTVYLQMNSLKPEDTAVYYCAAVVYGAVRGSRYPYYYWGQGTQVTVSS | high polyreactivity
QVQLVESGGGLVQAGGSLRLSCAASGRTFGNYAMGWYRQAPGKERELVADITRRGGSTSYADSVKGRFTISRDNAKNTVYLQMNSLKPEDTAVYYCNADSYLPAIRYDYWGQGTQVTVSS | low polyreactivity
QVQLVESGGGLVQAGGSLRLSCAASGRTFGPNAMGWYRQAPGKERELVAVISGSTGSTYYADSVKGRFTISRDNAKNTVYLEMNSLKPEDTAVYYCAAKSEFYDWYRSYQYEYYYWGQGTQVTVSS | high polyreactivity
QVQLVESGGGLVQAGGSLRLSCAASGRTFGPYAMGWYRQAPGKERELVAAITSSGGSTYYADSVKGRFTISRDNAKNTVYLQMNSLKPEDTAVYYCNKLYWRQSQDYDYWGQGTQVTVSS | low polyreactivity
QVQLVESGGGLVQAGGSLRLSCAASGRTFGPYAMGWYRQAPGKERELVAVISKSGTRTYYADSVKGRFTISRDNAKNTVYLQMNSLKPEETAVYYCAARSPYSYRYDYWGQGTQVTVSS | high polyreactivity
QVQLVESGGGLVQAGGSLRLSCAASGRTFGPYEMGWYTQAPGKERELVASISSADSTYYADSVKGRFTISRDNAKNTVYLQMYSLKPEDTAVYYCAAPSVGYYDPTDFDYWGQGTQVTVSS | low polyreactivity
QVQLVESGGGLVQAGGSLRLSCAASGRTFGQNAMGWYRQAPGKERELVAAISSGGSTYYADSVKGRFTISRDNAKNTVYLQMNSLKPEDTAVYYCAVSSWDRGYWYYYWGQGTQVTVSS | high polyreactivity
QVQLVESGGGLVQAGGSLRLSCAASGRTFGQNAMGWYRQAPGKERELVASIRSGGITDYADSVKGRFTISRDNAKNTVYLQMNSLKPEDTAVYYCNAEGVWWSTRYDSWGQGTQVTVSS | low polyreactivity
QVQLVESGGGLVQAGGSLRLSCAASGRTFGQNAMGWYRQAPGKERELVASIRSGGITDYADSVKGRFTISRDNAKNTVYLQMNSLKPEDTAVYYCNDEGVWWSTRYDSWGQGTQVTVSS | low polyreactivity
QVQLVESGGGLVQAGGSLRLSCAASGRTFGRNAMGWYRQAPGKERELVAAISYGGGSTYYADSVKGRFTISRDNAKNTVYLQMNSLKPEDTAVYYCAAPTDDSSLGVYKHGYWGQCTQVTVSS | low polyreactivity
